# Test results published in publication PMC8187606, “Biophysical and structural studies reveal marginal stability of a crucial hydrocarbon biosynthetic enzyme acyl ACP reductase” (Scientific Reports, 2021).
# Target: the molecule itself
# Assay: SEC; Superdex 200 Increase 10/300 GL; AAR 1.5 mg/mL; 50 mM Tris, 100 mM NaCl, 1 mM DTT, pH 7.4; without GdnHCl; oligomer of unstated size
protein,measurement,value
"Acyl-ACP reductase (AAR) from Synechococcus elongatus PCC 7942, 6-His tagged recombinant (enzyme, Acyl-ACP reductase (AAR), Synechococcus elongatus PCC 7942, codon-optimized aar gene in pQE30; domains described as NTD 1-130, mid-domain 131-264, CTD 265-341; also called Acyl-acyl carrier protein reductase; source: E. coli M15 (pQE30AAR), purified from the soluble fraction (Ni-NTA, gel filtration)) MFGLIGHLTSLEQARDVSRRMGYDEYADQGLEFWSSAPPQIVDEITVTSATGKVIHGRYIESCFLPEMLAARRFKTATRKVLNAMSHAQKHGIDISALGGFTSIIFENFDLASLRQVRDTTLEFERFTTGNTHTAYVICRQVEAAAKTLGIDITQATVAVVGATGDIGSAVCRWLDLKLGVGDLILTARNQERLDNLQAELGRGKILPLEAALPEADFIVWVASMPQGVVIDPATLKQPCVLIDGGYPKNLGSKVQGEGIYVLNGGVVEHCFDIDWQIMSAAEMARPERQMFACFAEAMLLEFEGWHTNFSWGRNQITIEKMEAIGEASVRHGFQPLALAI",binding result,binds
